Assay results reported in patent US7432093B2, “Soluble, functional apoptotic protease-activating factor 1 fragments” (The Trustees of Princeton University, priority 2004, dated 2008).
“Also recorded” adds a separate entry of the source.

Key:
Apaf-1 = molecular target: T1, Apaf-1 (Homo sapiens, UniProt O14727); conditions: observed by others, explained by the structure; cited from earlier work
T1 sequence (O14727 1-1248): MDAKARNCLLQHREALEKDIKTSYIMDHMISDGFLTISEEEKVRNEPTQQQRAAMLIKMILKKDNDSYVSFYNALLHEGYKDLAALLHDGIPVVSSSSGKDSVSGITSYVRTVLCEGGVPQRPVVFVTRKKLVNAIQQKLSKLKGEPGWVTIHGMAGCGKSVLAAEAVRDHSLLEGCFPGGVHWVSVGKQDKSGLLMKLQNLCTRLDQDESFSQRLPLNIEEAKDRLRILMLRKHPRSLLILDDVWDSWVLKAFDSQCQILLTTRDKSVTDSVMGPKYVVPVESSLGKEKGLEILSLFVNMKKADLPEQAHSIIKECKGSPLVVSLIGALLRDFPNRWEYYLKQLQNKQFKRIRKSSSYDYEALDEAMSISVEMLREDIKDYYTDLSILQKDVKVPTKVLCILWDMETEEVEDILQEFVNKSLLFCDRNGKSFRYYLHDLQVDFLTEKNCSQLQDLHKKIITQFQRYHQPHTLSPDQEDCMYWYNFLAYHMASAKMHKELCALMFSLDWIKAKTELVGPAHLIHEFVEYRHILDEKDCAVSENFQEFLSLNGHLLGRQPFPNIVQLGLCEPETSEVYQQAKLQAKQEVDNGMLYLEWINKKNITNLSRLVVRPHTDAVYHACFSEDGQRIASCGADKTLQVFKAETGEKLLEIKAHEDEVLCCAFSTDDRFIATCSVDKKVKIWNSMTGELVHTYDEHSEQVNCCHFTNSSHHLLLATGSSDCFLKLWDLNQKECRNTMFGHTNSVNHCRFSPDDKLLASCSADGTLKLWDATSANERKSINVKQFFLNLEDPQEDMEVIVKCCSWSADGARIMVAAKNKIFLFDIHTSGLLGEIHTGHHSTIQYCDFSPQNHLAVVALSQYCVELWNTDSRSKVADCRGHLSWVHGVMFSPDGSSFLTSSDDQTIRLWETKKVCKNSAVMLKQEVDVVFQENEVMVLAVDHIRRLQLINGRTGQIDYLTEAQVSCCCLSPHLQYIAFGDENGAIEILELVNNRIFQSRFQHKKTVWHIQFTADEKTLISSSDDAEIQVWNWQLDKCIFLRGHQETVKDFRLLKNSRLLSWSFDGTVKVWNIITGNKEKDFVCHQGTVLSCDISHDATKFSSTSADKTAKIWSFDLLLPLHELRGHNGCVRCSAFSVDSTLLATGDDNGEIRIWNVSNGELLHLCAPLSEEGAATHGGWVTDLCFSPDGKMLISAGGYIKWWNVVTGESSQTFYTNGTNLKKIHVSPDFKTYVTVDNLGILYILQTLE

[1] = molecular target: T2, soluble Apaf-1 fragment (residues 1-591) (Homo sapiens, UniProt O14727); assay: ATPase assay (TLC, conversion of (alpha-32P)ATP to ADP); assay type: biochemical
T2 construct: Leu-Glu-His6 (C); made in house; host or cells: Escherichia coli BL21(DE3), pET29
T2 sequence (O14727 1-591): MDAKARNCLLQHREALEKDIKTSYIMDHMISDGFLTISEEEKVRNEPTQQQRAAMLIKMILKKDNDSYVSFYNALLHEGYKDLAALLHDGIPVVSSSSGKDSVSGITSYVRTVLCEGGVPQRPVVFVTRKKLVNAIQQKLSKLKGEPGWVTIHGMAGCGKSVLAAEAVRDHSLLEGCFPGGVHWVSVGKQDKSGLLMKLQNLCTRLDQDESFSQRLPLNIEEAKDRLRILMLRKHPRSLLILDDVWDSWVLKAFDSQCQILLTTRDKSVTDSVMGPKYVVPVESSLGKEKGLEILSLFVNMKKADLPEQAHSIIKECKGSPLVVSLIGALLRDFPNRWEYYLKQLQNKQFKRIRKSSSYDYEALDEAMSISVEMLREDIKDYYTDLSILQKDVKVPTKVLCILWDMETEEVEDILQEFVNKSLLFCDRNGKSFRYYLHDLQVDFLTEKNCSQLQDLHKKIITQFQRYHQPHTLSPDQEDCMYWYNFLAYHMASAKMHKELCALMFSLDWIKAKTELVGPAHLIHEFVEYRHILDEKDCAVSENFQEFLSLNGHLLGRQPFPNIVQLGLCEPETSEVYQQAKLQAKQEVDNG
Procedure: ATPase activity was determined using a thin layer chromatography (TLC) assay designed to quantitatively measure the conversion of (alpha-^32P)ATP to ADP. Reactions were initiated by mixing the soluble Apaf-1 fragment at a final concentration of 2 micromolar with a solution containing 20 millimolar HEPES, pH 7.5, 10 millimolar DTT, 10 micromolar magnesium chloride, 0.1 micromolar (alpha-^32P)ATP, and 8 micromolar ATP. The reaction was incubated at room temperature for the indicated duration and then quenched by addition of an equal volume of developing solvent (1 molar formic acid, 0.5 molar LiCl). Samples were evaluated based on the differential mobility of ATP versus ADP on TLC using polyethyleneimine-cellulose F plates.

[2] = assay type: physicochemical, E. coli
[3] = molecular target: T3, caspase-9 activation by the soluble Apaf-1 fragment (Homo sapiens, UniProt O14727); assay: Caspase-9 activation assay (fluorogenic, LEHD-AMC); assay type: biochemical; conditions: absence of ATP and of the apoptosome
T3 construct: Leu-Glu-His6 (C); made in house; host or cells: Escherichia coli BL21(DE3), pET29 (both proteins)
T3 sequence (O14727 1-591): T2 sequence (O14727 1-591)
T3 sequence (P55211 1-315 partner limits assumed): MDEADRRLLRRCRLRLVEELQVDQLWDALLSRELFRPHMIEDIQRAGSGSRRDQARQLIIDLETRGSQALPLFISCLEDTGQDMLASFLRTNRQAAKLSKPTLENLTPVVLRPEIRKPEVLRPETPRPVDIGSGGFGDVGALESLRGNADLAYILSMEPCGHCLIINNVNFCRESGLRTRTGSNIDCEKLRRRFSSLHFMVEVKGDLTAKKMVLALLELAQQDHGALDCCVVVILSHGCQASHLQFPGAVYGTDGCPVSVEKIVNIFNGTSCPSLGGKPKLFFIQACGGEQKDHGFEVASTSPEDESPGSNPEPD
T3 sequence (P55211 331-416 partner limits assumed): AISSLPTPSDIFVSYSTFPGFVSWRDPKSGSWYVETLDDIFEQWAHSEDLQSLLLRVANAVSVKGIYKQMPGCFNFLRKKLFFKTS
Procedure: A fluorogenic assay was developed to monitor caspase-9 activation by the soluble Apaf-1 fragment. […] Then, caspase-9 and Apaf-1 were added to a final volume of 200 microliter and final concentrations of 0.2 micromolar and 2 micromolar, respectively. After incubation for 5 minutes at room temperature, the caspase-9 substrate LEHD-AMC (a tetrapeptide coupled to 7-amino […]) was added to the reaction at a final concentration of 200 micromolar. The conversion of the fluorogenic substrate was then measured using a Hitachi F2500 fluorescence spectrophotometer with an excitation wavelength of 380 nanometers and a fluorescence detection wavelength of 440 nanometers.

## Nc1nc2c(ncn2[C@@H]2O[C@H](COP(=O)(O)OP(=O)(O)OP(=O)(O)O)[C@@H](O)[C@H]2O)c(=O)[nH]1 [GTP]
Apaf-1
  activation of Apaf-1: does not activate Apaf-1

B1: 1-591: soluble human Apaf-1 fragment, residues 1-591 (SEQ ID NO: 1), expressed in E. coli BL21(DE3) with C-terminal Leu-Glu-His6 (protein, listed as Homo sapiens)
chain: T2 sequence (O14727 1-591)
modifications: C-terminal Leu-Glu-His6 tag
[1]; 2 micromolar fragment, magnesium present, room temperature, FIG. 6A
  ATPase activity (appearance of ADP on TLC): exhibited ATPase activity
[1]; EDTA added (magnesium removed), FIG. 6A lane 3
  ATPase activity on incubation with EDTA: abrogation of the observed ATPase activity
[2]
  Solubility: ++++
  solubility and solution behavior (in words): good solubility and solution behavior
[3]
  catalytic activity of caspase-9 in the presence of Apaf-1: significantly and reproducibly elevated; also recorded: significantly improved the caspase catalytic activity
